Assays:
[1] = molecular target: G3; test: SPR (Biacore); without IL-10Rα
[2] = molecular target: G3 (+Rα); test: SPR (Biacore); pre-bound to IL-10Rα
[3] = molecular target: A11 (+Rα) (UniProt Q13651 22-235); test: SPR (Biacore); pre-bound to IL-10Rα
[4] = molecular target: B11 (+Rα) (UniProt Q13651 22-235); test: SPR (Biacore); pre-bound to IL-10Rα
[5] = molecular target: R5A11 (+Rα) (UniProt Q13651 22-235); test: SPR (Biacore); pre-bound to IL-10Rα
[6] = molecular target: R5A11; test: SPR (Biacore); monomer, without IL-10Rα
[7] = molecular target: B11; test: SPR (Biacore); monomer, without IL-10Rα
[8] = molecular target: G3; test: SPR (Biacore); monomer, without IL-10Rα
[9] = molecular target: A11; test: SPR (Biacore); monomer, without IL-10Rα

B1: IL-10Rβ (receptor)
chain: MVPPPENVRMNSVNFKNILQWESPAFAKGNLTFTAQYLSYRIFQDKCMNTTLTECDFSSLSKYGDHTLRVRAEFADEHSDWVNITFCPVDDTIIGPPGMQVEVLADSLHMRFLAPKIENEYETWTMKNVYNSWTYNVQYWKNGTDEKFQITPQYDFEVLRNLEPWTTYCVQVRGFLPDRNKAGEWSEPVCEQTTHDETVPSLNDIFEAQKIEWHWHHHHHH
modifications: biotinylated with BirA ligase on the biotin acceptor peptide
- Kd [1]: 2400 nM
- Kd [2]: 8 nM
- Kd [3]: 23 nM
- Kd [4]: 65 nM
- Kd [5]: 100 nM
- Kd [6]: 8900 nM
- Kd [7]: 9400 nM
- Kd [8]: 2400 nM
- Kd [9]: 2400 nM

Reference: patent US20230203117A1 (published 2023)
